Laboratory results reported in paper PMC8583942, “An Engineered Thermostable Laccase with Great Ability to Decolorize and Detoxify Malachite Green” (International Journal of Molecular Sciences, 2021).

Substrate: CCn1c(=NN=c2sc3cc(S(=O)(=O)O)ccc3n2CC)sc2cc(S(=O)(=O)O)ccc21
Experiment: purified protein
Assay type: biochemical, Geothermobacter hydrogeniphilus
Conditions: 1 mM CuSO4, 20 mM acetate pH 4.0, 60 °C

B1: Ghlac WT (Geothermobacter hydrogeniphilus) (protein)
chain: MKMARNGKISYLEPEWITGSLRAGFTTRNGGISRAPYNSLNLGLNTEDPRPNVEGNRSTLVRAFGLEVHQLLTVRQVHGNNILVVDEPNPDLSHFQQVECDAIISNQPGMMIGVLVADCYPVLLAAPAQGVVAAVHVGWRGAVAQIIQRTVDALQEQFGVCPEELLAAVGPGIGAHAYEVDRPVRDQFRKAGLPWAGVAEESRLGHWKLDLRETCRRQLLTAGVVRTHIDLAEECTCCHRELLFSHRRDNGRTGRQLGFILLT
notes: codon-optimized in pET-28a(+) NcoI/XhoI; E. coli BL21(DE3)
Km: 1300 µM | kcat: 2.095 s⁻¹
